Drawing on patent US20190040156A1, this text covers Kd and maximum immune complex weight average molecular weight for 1 substance.

pKd: −log10 of the molar value.

Assay [1] has as its target human FcγRI (CD64) (human) (UniProt P12314). The assay can be described thus: SPR, Biacore T200, antibody captured on protein A, FcγR as analyte, 37 °C, N=3. A general note: SPR reads the build-up and loss of mass on a sensor chip optically.
For assay [2], the target named is human FcγRIIb (CD32b) (human) (UniProt P31994). The assay is described as above.
human FcγRIIb (CD32b) (human), sequence (P31994 43-217 limits assumed): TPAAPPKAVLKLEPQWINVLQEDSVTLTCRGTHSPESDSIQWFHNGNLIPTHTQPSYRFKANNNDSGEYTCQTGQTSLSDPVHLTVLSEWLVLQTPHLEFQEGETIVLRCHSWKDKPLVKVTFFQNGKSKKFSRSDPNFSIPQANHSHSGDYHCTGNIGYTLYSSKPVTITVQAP
Another assay addresses human TNFα (human) (UniProt P01375). Put plainly: CG-MALS of antibody:TNFα complexes, molar ratios about 0.5 to 5.0, antibody 10 µg/mL, PBS pH 7.2.

A word on the pKd: it is the negative decadic logarithm of the Kd, by convention in mol/L. Low readings indicate a high Kd, high ones a low Kd.

human TNFα (human), sequence (P01375 77-233 limits assumed): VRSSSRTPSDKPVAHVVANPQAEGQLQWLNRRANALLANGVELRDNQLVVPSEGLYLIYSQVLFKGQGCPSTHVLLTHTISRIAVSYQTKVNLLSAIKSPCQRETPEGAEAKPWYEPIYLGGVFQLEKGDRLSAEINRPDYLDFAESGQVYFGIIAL
human FcγRI (CD64) (human), sequence (P12314 16-288 limits assumed): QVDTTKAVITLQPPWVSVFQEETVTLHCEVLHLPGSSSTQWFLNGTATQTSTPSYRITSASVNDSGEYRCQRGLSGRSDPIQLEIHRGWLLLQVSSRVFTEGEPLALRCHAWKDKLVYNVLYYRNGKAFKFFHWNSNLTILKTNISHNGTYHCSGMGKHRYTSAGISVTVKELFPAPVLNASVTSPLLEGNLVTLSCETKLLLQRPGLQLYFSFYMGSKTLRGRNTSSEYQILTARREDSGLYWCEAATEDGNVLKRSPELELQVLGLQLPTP

Take “parental anti-TNFα antibody (adalimumab, as described in U.S. Pat. No. 6,090,382)”: the negative-log Kd (pKd) in assay [1] was 10.25; in assay [2], 5.24. Besides, the maximum immune complex weight average molecular weight with human TNFα (human) is > 1300 kDa.
